This assay deals with RGY-hIgG1-34-1-2S (mouse | human | not stated). Kind of assay: negative stain electron microscopy; antibody in solution diluted to 0.01 mg/ml in 25 mM HEPES, 100 mM NaCl, on carbon-coated grids, 0.75% uranyl formate.

B1: RGY-hIgG1-34-1-2S (antibody, V domains shown)
VH: EVQLQQSGAEFVRPGASVKLSCTASGFNLKDDYMFWVKQRPEQGLEWIGWIAPDNGDTEYASKFQGKATITADTSSNTAYVQLSSLTSEDTAVYYCTTWGYYSYVNYWGQGTTLTVSS
VL: DIQMTQSPSSLSASLGERVSLTCRASQDIGSNLNWLQQEPDGTIKRLIYATYSLDSGVPKRFSGSRSGSDYSLTISSLESEDFVDYYCLQYASSPYTFGGGTKLEIK
Turning to B1, the stoichiometry N came to 6.
